Experimental data from the supplement of paper PMC9732359.
± gives the uncertainty stated by the source.

Assay: protein stability index of a GFP-peptide fusion (yeast GPS) (PSI 1-4); higher = more stable; sorted into four equal gates, so the index is relative within each strain
How it was run: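 The protein stability index combines read frequencies across sorting gates, each weighted by its gate number and then summed. To obtain those frequencies, a pooled yeast library of GFP fusions to tiled 17-residue yeast protein peptides, on a plasmid also expressing Cherry, was grown to mid-log phase in leucine-free medium. The cells were sorted into four equal gates by GFP/Cherry ratio before plasmid amplification by PCR and Illumina sequencing.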

Sequence	protein stability index (doa10∆)	protein stability index (pdr5∆)	protein stability index (san1∆)	protein stability index (ubr1∆)
TESLRVENSVLIEKVDD [YIL149C/MLP2]	2.48 ± 0.17	2.98 ± 0.22	2.63 ± 0.14	2.79 ± 0.074
LNGGLQFVPELKEFTAK [FAS2]	2.75 ± 0.11	2.72 ± 0.11	2.3 ± 0.092	1.83 ± 0.064
SEDHSFRKVKLRVDEVQ [RPS1B]	3.05 ± 0.094	2.96 ± 0.15	2.66 ± 0.091	3.1 ± 0.067
EFYNEMHRPVHFLQFSE [PRP8]	2.9 ± 0.086	2.51 ± 0.089	2.27 ± 0.067	2.33 ± 0.058
KSYASLLAQLNGTVNNN [RPT3]	2.61 ± 0.14	1.84 ± 0.11	2.2 ± 0.19	2.55 ± 0.12
KGNFRTKPFENVEKYPT [SNU114]	–	3 ± 0.24	3.16 ± 0.25	–
SPVQIAFNRFMAESLVD [SSN8]	1.52 ± 0.043	1.97 ± 0.045	1.63 ± 0.11	1.52 ± 0.044
NLTPANILNMSMNNDFQ [PGD1]	2.86 ± 0.11	3.22 ± 0.091	3.01 ± 0.068	2.89 ± 0.052
YGLIRGLKFASFIFQYY [PRP8]	2.23 ± 0.11	2.52 ± 0.13	2.02 ± 0.093	2.36 ± 0.085
AGYTDNVIRVWQVMTAN [ASC1]	1.56 ± 0.14	1.35 ± 0.08	1.5 ± 0.21	1.3 ± 0.075
CAECSSKLSLSRTDAVR [RPC10]	2.12 ± 0.049	2.16 ± 0.047	2.51 ± 0.061	2.35 ± 0.05
GELFLNESWKSSFEKFN [SRP72]	3.23 ± 0.23	3.22 ± 0.11	2.79 ± 0.12	3.24 ± 0.073
KLVEIIWNDVVYGEGTS [YJL039C/NUP192]	3.46 ± 0.11	3.26 ± 0.11	3.39 ± 0.098	3.35 ± 0.058
NLGIPKIAYRGVKDCQE [SSN2]	1.49 ± 0.2	1.58 ± 0.19	1.54 ± 0.26	1.13 ± 0.16
PLNKPLLTEELAKSGST [TAF14]	2.25 ± 0.068	2.24 ± 0.064	2.94 ± 0.072	2.39 ± 0.054
KVVEFAITHMIDALGTE [SCL1]	2.03 ± 0.044	2.28 ± 0.038	2.27 ± 0.079	2.18 ± 0.023
DSLIQLANRSKENFILD [YJL039C/NUP192]	–	–	3.23 ± 0.14	3.13 ± 0.11
VVETITSLLNKVLKSGS [RRP42]	2.67 ± 0.11	2.37 ± 0.067	2.54 ± 0.085	2.45 ± 0.051
LEEHKNHLDELQKKFVT [SMC1]	2.88 ± 0.08	2.83 ± 0.11	2.88 ± 0.059	2.91 ± 0.052
LRRRTASHNVRRIPKRM [POP1]	2.98 ± 0.065	3.02 ± 0.062	2.85 ± 0.052	2.75 ± 0.042
VSKKELYAIKKVTLNKE [BRR2]	1.73 ± 0.072	2.01 ± 0.11	–	1.6 ± 0.085
LFDTYHASKAIGLPRHS [RRP6]	2.15 ± 0.061	2.29 ± 0.06	2.34 ± 0.081	2.08 ± 0.071
YRNNEPAGFTHKLSNWL [YDL088C/ASM4]	2.49 ± 0.072	3.04 ± 0.058	2.7 ± 0.06	2.82 ± 0.039
CKVVAEMIRGRSPEEIR [SKP1]	–	1.95 ± 0.15	2.21 ± 0.29	1.49 ± 0.11
NSINNNNIKNGTNNISQ [YDL088C/ASM4]	2.79 ± 0.044	2.75 ± 0.046	2.74 ± 0.046	2.98 ± 0.035
MAGVKAYELRTKSKEQL [RPL35A]	3 ± 0.11	3.38 ± 0.1	2.94 ± 0.067	3.17 ± 0.13
TNPSSIFGGAGGVPTTS [YOR098C/NUP1]	1.72 ± 0.066	2.36 ± 0.076	2.15 ± 0.086	1.59 ± 0.053

Sequence	protein stability index (doa10∆)	protein stability index (pdr5∆)	protein stability index (san1∆)	protein stability index (ubr1∆)
SFVFGQAAAKPSLEKSS [YLR335W/NUP2]	1.79 ± 0.1	2.5 ± 0.1	2.21 ± 0.14	2.67 ± 0.09
DEYLGSHTDQPANVLLV [NNF1]	3.57 ± 0.25	–	–	2.92 ± 0.13
SFLGYLRYVKQIEGPFL [ISW2]	2.28 ± 0.061	2.42 ± 0.046	2.45 ± 0.053	2.4 ± 0.04
LAFYQVTPEEDEEEDEE [RPL22A]	3.14 ± 0.1	3.45 ± 0.12	3.61 ± 0.06	3.38 ± 0.11
SHTDQPANVLLVQSLND [NNF1]	2.07 ± 0.071	2.16 ± 0.083	2.23 ± 0.18	2.7 ± 0.09
NSFYYTSLLYLSTLEPS [RPN9]	1.82 ± 0.05	1.56 ± 0.046	1.47 ± 0.1	1.77 ± 0.041
FRHHVQIQQQQQKQQQQ [SNF5]	2.71 ± 0.17	–	3.07 ± 0.13	2.57 ± 0.083
KRSDLTGANSIYSVEKK [UBP6]	3.09 ± 0.12	2.8 ± 0.15	2.57 ± 0.15	3.16 ± 0.056
TTFEYIIKERALLSKVK [SNF2]	1.58 ± 0.046	1.67 ± 0.048	1.41 ± 0.071	1.37 ± 0.036
DADEKSSNLYETIIEAD [YJR042W/NUP85]	2.82 ± 0.067	2.95 ± 0.061	2.88 ± 0.057	3.13 ± 0.082
QKTVNLKNIMKVSDPYV [RPN4]	2.32 ± 0.084	2 ± 0.11	2.48 ± 0.1	1.82 ± 0.058
QPEVAVKAAINFSNVTD [YIL149C/MLP2]	2.21 ± 0.064	2.44 ± 0.055	2.2 ± 0.071	2.55 ± 0.048
FYKNKYSSKPYKVDNMT [RPN2]	2.44 ± 0.067	2.84 ± 0.072	2.79 ± 0.081	2.1 ± 0.075
FEIIFPPTDTNVEESVS [POP5]	2.91 ± 0.091	2.68 ± 0.085	2.47 ± 0.071	3.09 ± 0.12
QSTPQPDDMVEINSVGN [ITC1]	3.2 ± 0.11	3.42 ± 0.043	3.04 ± 0.13	3.18 ± 0.075
PSKKLKTEDGFVIPALP [RPC82]	3.08 ± 0.13	3.19 ± 0.089	2.93 ± 0.083	3.08 ± 0.065
HFVRDLGTIESAQAETE [DIS3]	2.16 ± 0.26	2.42 ± 0.13	2.85 ± 0.21	2.49 ± 0.095
NELLLPSELNQLKMVNE [RPC82]	3.14 ± 0.12	2.94 ± 0.13	3.25 ± 0.13	–
ATGNESQDATKVDATPE [YLR335W/NUP2]	2.87 ± 0.086	3.22 ± 0.082	3.04 ± 0.066	2.94 ± 0.099
SSFNKRSKFLSTVAKFL [IRR1]	2.76 ± 0.052	2.28 ± 0.054	2.08 ± 0.067	2.4 ± 0.035
GFPSAPQPLFMEDPPST [YMR153W/NUP53]	2.66 ± 0.06	3.08 ± 0.056	2.98 ± 0.053	2.8 ± 0.052
SNDNLDLISEILKWVQW [MED1]	3.03 ± 0.057	2.92 ± 0.058	2.9 ± 0.051	3.09 ± 0.047
LLSQFGIKVLPETCLFV [YML103C/NUP188]	2.1 ± 0.075	1.55 ± 0.058	1.18 ± 0.14	1.33 ± 0.059
LKRFPKMSVTCNAQPIT [BRR2]	2.33 ± 0.066	2.23 ± 0.06	2.02 ± 0.11	1.9 ± 0.037
MPFWKFFMKNFPFVLKV [SRB8]	2.8 ± 0.23	1.99 ± 0.11	2.03 ± 0.12	2.04 ± 0.1
TESVPEPKLFRMRIFAS [RPL20A]	3.36 ± 0.13	3.02 ± 0.18	3.02 ± 0.13	1.21 ± 0.24
HKHNIMKNENANPKKLA [CDC53]	2.14 ± 0.042	2.31 ± 0.049	2 ± 0.064	2.35 ± 0.057
